Test results from the supplement of paper PMC12636428.

System: Saccharomyces cerevisiae
Assay: transcriptional activation domain activity (GFP:mCherry ratio, weighted mean of sorted bins, harmonized to initial dataset scale) (arbitrary fluorescence ratio units); higher = stronger transcriptional activation
Details: beta-estradiol 1 µM; induction time 4 h
Method in brief: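 The listed activation activity is a read-weighted mean of bin median fluorescence, averaged across barcodes and linearly mapped onto the initial dataset scale. Barcoded tiles, fused to an estradiol-inducible synthetic transcription factor, were integrated at URA3 in yeast diploids bearing a GFP reporter. Cells were held 4 hours at 30 °C in SC with 1 uM beta-estradiol, sorted into 8 GFP:mCherry bins, and sequenced, and tiles with fewer than 50 reads were excluded.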

Sequence	transcriptional activation domain activity
SGIYSGGLSLWTAFFLGYFKAFLWGSFWGWLAGYFVLLFVICVAWNPFFFLYL	57600
SGKLVFGPVSVFNGNVSLRIKKPLKGMTLTVTFNGVAEVDKYLFTFLNISHEV	57800
SGKQGGRKSGSPHGRRPAIQGARRKGKQSSRKPTGKQTKQSPGKSGARKAFGK	42400
SGLAFRNFWIRRISFAGHLRNSNSALTPSRYFRLMSMAVVQMFWGLVVTSLYT	46800
SGLPIQYLNGSVTYQDGWVWLPGDSTDINATVQDLEDMWDSMVLNFWPLMTLF	66100
SGLVIIFFMITRYFTATAEHLDHLSRCKVHNVPPYSYVFWICILGLELLLCSL	48600
SGNPPNVVMPPIVCPYSPIIIISYVVTYFFLHHFGGLIGWLQFLSLLLQSLMV	51000
SGNTGENEEDIAFASGLNGGTFDSMLEALPDDLYFTDFVSPFTAAATTSVTTK	85100
SGPRASSGAKAQSLSQRGAKRKAASTARTEGASSSKSSRARGGKARASRVAKT	32900
SGPSRERYFLFVFLGSFFWYFFPGYLFQALSWFSWVTWIWPHDTAIAQLFGYF	52100
SGPSSNDELIEKGRMLVDELSEAGGGIKDGARNNTSSLYLHLVRVSIDKFSHA	18900
SGQSVVWEAQKLVHKGFLIDAHVVVVFYVMGCFFIYVLARLRCSNPKLIVMQI	62800
SGRTATSAKSHNIISGYREEVEQANLNLSLIDSQVVLLRAWKLLAMELCPFAF	55900
SGSAAGPSSNAAEKETKEKSGQRRRGRRGGGGGGGGGGGDKNAATGTSQGASG	35200
SGSGAEGASGTEHRRRASTRGRGRGRGRGGRAGRGGRAKTNGEGAELAGEEAG	< 6570
SGSGAEGASGTEHRRRTSTRGRGRGRGRGGRTGRGGRTANDAEGAEGAEADAS	27900
SGSNINNNDNVKLPSNFKNYYDPPMSSLDISMDVPDIFGSLDFFDYDLLFQND	179000
SGSSKPRRAEDGRKSSRRDHSREREGSNGGHHRSRSGRDGSASPKRSSSSRRR	16800
SGTEDEDAAEDKSAAEDESGTEDESGTKDESGTEDEKLVRDIEEVVIVVEVVM	32900
SGTSLFLFYFYFIFILILISIITFFFLFLIFFFIILFLLLLFFSYPSGIRPGW	26900
SGWQRHIILHESLLNRYEHVIIVFVKSHLPSAGLLLKQFCVSGRILARMWRNG	47800

Sequence	transcriptional activation domain activity
SHALQNRRASHASSAGSGSRRGSREETGEHHHKKHHHHKKHHHRRHSHGGGGG	54500
SHDTFPLRPILVKLLCHAMLMKGVDPVSIIEKQPMTYGFVADILLPLVLDLPS	62200
SHFLPLLLFLSLSFILFSFPFILPFSLISLFSYFFLPFLHISTLFHSYFSFLL	47400
SHLDRRSNQFCRVQFCYKHLLLLWFFLLLFLAYPCQLLCIIIFPNLVSSLCRF	31200
SHLEQMLWRICSLVIICAPMYLALSGKVFLIFSNSIGQLYILLCIRGPFLLYI	69600
SHNTHTLSLSLPFPSYSSYSDLIFLFLFLLLFFFFLFLFLFLFLFLFLFSLPF	34100
SHPDIMDAAVIGVEGEGTEVPRAYVVADRKKVNEKKVQEWVKGRTARNKRLRG	25900
SHQEHVIAQLMNKVKSVSTTKPYVEYFQMPSKSVFITIVALCLYVILLKKTPS	15500
SHQVLSCLAIFVFPRLAFITLSDNLLILSLRSMMSDFVFLMLLGAWCFLGFLY	55200
SHREEAHEKASESESESGSEEQGSGGEKSEPKPEAEADGAADEASPGEEEGSQ	24600
SHRKGIERKKRLREEERRREAKENGIVLEREKRADKGKERGRRDRGVDAPGVG	26800
SHSGVSRSGKRDASRSTSASGLGRNNGNASASGNGSRKGKRRSEGAGGRGKRV	13500
SHTAEPSDADGEGTRATRRAKTKSKSTGKSREAGKRSNGARKGGGRADSGGKD	46800
SHYALCVNMHAYWHSNPHFGSEHRWLGFPPFYHVFGLSYILLLAPCLGATVCV	61100
SIAISPESAVANLGTDTGLPSDVLDTVSKIGNSPNVFDDDLFSNLLWFDQNFA	142000
SICCALQDWYDYFSTLSYQDTLKSNIWYSLAETEYYWLHLLLFLPHLKRYLTR	47600
SICRLGVGLSITGYRLGSMVLLRHDLRLIVTVFSMHLKYFVSFARPSMKILLR	67300
SIDSAAHHDNSTIPLDFMPRDALHGFDWSEEDDMSDGLPFLKTDPNNNGFFGD	69800
SIEDMTGWKLLHGDVFRAPPNGNILAPLVGSGCQLVYMATGLLMLSCLGILNP	41600
SIFVVFFISFVPLVVQELTERGFWRAATRLAKHFGSLSFLFEVFVCQVYANSL	65500
SIHEPVDFLEPQPFLDFFVVFCFRLLFLWLLIFIFLFRLFIVFSLLFLFLHHI	28600

Sequence	transcriptional activation domain activity
SIHLPKKITICTYIGTYYAIGAAWGFVLMNYFLTGWYFGLYDKYYIDSFGIYV	76000
SIILLCLPAAYFLFNIFSVGLLSLGFSHRLIPGIPRLRRYIFVPGVFLYIFAR	54300
SIKVTRYLLNLAHCTNDQWFYYIVFFFAELVVYTIMIVAIGSILFQWRFFCLV	52100
SILASLGFIVCGVYIWVTSHWNPQHVRDGLPLLYFSGHLRCKIYSIVLNLFVT	69900
SILLMQHNLYHFIHFFKKIRQVIEKGEYPSFKQELIQNLGQTGWWKFLNAKSL	59500
SIMHALRQFCTEMRATQFQDCRLRTVQLLLRLLPSANLSLFVYLLAFLSQIVQ	36200
SIPPPPPPPAPPGPSRGGPPPPPPPPPPGGRGGAPPPPPPPPGGRAPPAPPAP	22100
SIRVILLNLGLSNGLETIPYGLISIIYQSKYQSFAYTLLFFSNLFTYSLWYVV	61200
SISFIGHRMMFWFFACVGLACLFMAGALAVMCLHYLLMIFLFYLRCYPPYLGS	31900
SISQFCWIWYTRPRPLQDICYYDSASRGPWGCFLLLLRLRFIRFACIGAIITL	78600
SITILVNIFLLHGSVKFIQKCLQYIGYIAEEVRSSLPLHKCLYWPLLIMLRLL	45200
SIWSFSTLLSILARDHVFYFFIKQNVDTFYIWLLETTAIYYIFMLGPIMFLSI	60600
SIYCRLIQKSLFLMMVPIVQMPPLLLLLTCYFLRIFLSFFTRMYFVCFVLIFL	62400
SIYLCTHGTFFVVVTPIYFDYPCCGNPLVLFSSTLGMIIHFILFFFCLPCFFL	63100
SKADTEDGEEAVDDTATEEKPEAKAEEVTEETTTEKEAEAAAESAAAEKLRRD	25700
SKAGLILVIRRQGNEIICGAYRNLGFKMLWKLYVKSLFDVMGQWHEVYATSKP	64000
SKARSRGQSSRTRKRGRQESSGESSSSEEEDSYRGRQGRSKAGKKGKDKGKGK	27200
SKDARETNPEGEEIEKQRRKKRSREEKEDNERSSRKRRSSRSRSPRRQKEKAN	30900
SKDDRSISSEDKASSDKLKKSSDRADRKRKDDDDSKRSKADRKSKRDEERSSD	29600
SKDEEGEGEGEGDEEKVEEGGDEDGEQVEGEDGAKSAAATASAKKFSKREKEM	48900
SKDLTRLTLISIMLEKCEGDYSAACVEQYLTVLLKFAVLAVVSDQTLHLSILA	52000

Sequence	transcriptional activation domain activity
SKEKLSAVENSHAIKLEIILEGIGSIMLSHPNDMQLLSRVVRLLVRVAIQFRR	56500
SKEREQRERSVEQEQPRRKNGRRRRDKRDEQRRRNRRRSSSSRRESRSSRRES	44600
SKFASSGLFGVDVYSVWKRATEKISDGNNTTDSNQKHHPYHNHPSNDSGNEKN	41500
SKGAKKDAGPRGAVRRAKKKGGVEPEKKKREKDGGSREKSRSSSKKEKGGFER	15200
SKGNSINTFLEQVTFQVVPMLIDLCVAIGYFLVAFDAYYALVVAIVTFCYLYV	44100
SKHATEAEKKKEEEKKSKSKEAPAKKEKKEKVKEEKPKEKVVAKIPEPAPSEP	20200
SKHEDQKSRRSRDEKDRGSRSSRHREDGHRSHRDRSRSRDRHHRSSKHHERRR	27700
SKHRRRHRSSSRERHRHRERDGEPSSSRHRSRRDRSRSKDRSKKEESHRSHRS	24500
SKHSKKRSSKRARSSSSSSSSSSSEEDDRRRRKRRKEKKRSHKKSHTRRRSRS	32700
SKIAWMILNIKYITQILTTIMRMHGQIEKNPLRPEVVPQFVGICRWIMQFMIY	55700
SKKKGRKAQKTGSADPAPNESKDRAGATEEAAEGAADEEDEQDEDEDEDEEGE	37600
SKKRKIKGGKSRSSSSKSDSSSSSSSSEDGEEKDLSKGVGKRGAKRAKSDDSS	19000
SKMLTEFKQKLRLDYFMLLDLRLWKDMRMCLRKMFISTLVANLSYKRILGVRF	73200
SKNDSASDEEEEGDDLPSAYCTVILNHQKVFKTRTKPKNSKPFFNAGCERFIP	57400
SKPSARKASSRSVASKEQAAVAAKKVASVEEQKKKRGRPRKLPLSDATNEVAS	42100
SKPSSNGRSDCSKHSTGKDASNKKNNRGKSKKAKKKTAAAKANTTDNESDSSD	33600
SKQAGVGGEDEGEEDVPEDFGHSDNIRKKLLEVLGRDRRDRVLSSLYIVRADG	43800
SKRAQDPLRIWDAMIDVHVHLPAGAQKKDGPSAGVAMVIVCAIVSLLTGKCVP	46600
SKRREIRKTKEARREGSERRDGEADSEEKAREGKGSKRRRRGTGRRAEEAAKG	27400
SKSESTHSSAKKADSGKRSGRSKPATSDGGPKGFDSKPSGEKSKKESSRSTKE	36600
